Data from the RNAGym collection of RNA variant scans (doi:10.7554/elife.80360).

B1: Twister Ribozyme (parent)
chain: AACACUGCCAAUGCCGGUCCCAAGCCCGGAUAAAAGUGGAGGGGGCGG

Variants of: B1
Experiment: self-cleavage, relative activity (ratio to wild type); higher = more cleavage; co-transcriptional

Variant	self-cleavage
AAUGCUGCCAAUGCCGGUCCCAAGCCCGGAUAAAAGUGGAGGGGGCGG [C3U A4G]	0.183
AAAACUGCCAAUGCCGGUCCCAAGCCCGGACAAAAGUGGAGGGGGCGG [C3A U31C]	0.224
AAAACUGCCAAUGCCGGUCCCAAGCCCGGAGAAAAGUGGAGGGGGCGG [C3A U31G]	0.121
AAAACUGCCAAUGCCGGUCCCAAGCCCGGAAAAAAGUGGAGGGGGCGG [C3A U31A]	0.163
AAGACUGCCAAUGCCGUUCCCAAGCCCGGAUAAAAGUGGAGGGGGCGG [C3G G17U]	0.0757
AAGACUGCCAAUGCCGCUCCCAAGCCCGGAUAAAAGUGGAGGGGGCGG [C3G G17C]	0.0532
AAGACUGCCAAUGCGGGUCCCAAGCCCGGAUAAAAGUGGAGGGGGCGG [C3G C15G]	0.133
AAGACUGCCAAUGCAGGUCCCAAGCCCGGAUAAAAGUGGAGGGGGCGG [C3G C15A]	0.161
AAGACUGCCAAUGCUGGUCCCAAGCCCGGAUAAAAGUGGAGGGGGCGG [C3G C15U]	0.389
AAGACUGCCAAUGCCGGUCCCAAGCCCGGAUAAAAGUGGAGGGGCCGG [C3G G45C]	0.207
AAGACUGCCAAUGCCGGUCCCAAGCCCGGAUAAAAGUGGAGGGGACGG [C3G G45A]	0.479
AAGACUGCCAAUGCCGGUCUCAAGCCCGGAUAAAAGUGGAGGGGGCGG [C3G C20U]	0.295
AAGACUGCCAAUGCCGGUCGCAAGCCCGGAUAAAAGUGGAGGGGGCGG [C3G C20G]	0.0675
AAGACUGCCCAUGCCGGUCCCAAGCCCGGAUAAAAGUGGAGGGGGCGG [C3G A10C]	0.28
AAGACUGCCUAUGCCGGUCCCAAGCCCGGAUAAAAGUGGAGGGGGCGG [C3G A10U]	0.648
AAAACUACCAAUGCCGGUCCCAAGCCCGGAUAAAAGUGGAGGGGGCGG [C3A G7A]	0.0709
AAAACUUCCAAUGCCGGUCCCAAGCCCGGAUAAAAGUGGAGGGGGCGG [C3A G7U]	0.0571
AAGACUGCCAAUGCCGGUCCCAAGCCCGGAUAAAAGUGGAGGGGGCUG [C3G G47U]	0.361
AAGACUGCCAAUGCCGGUCCCAAGCCCGGAUAAAAGUGGAGGGGGCAG [C3G G47A]	0.275
AAAACUGCCAAUGCCGGUCCCAAGCCCGGAUAAAAGUGGAGGGAGCGG [C3A G44A]	0.221
AAAACUGCCAAUGCCGAUCCCAAGCCCGGAUAAAAGUGGAGGGGGCGG [C3A G17A]	0.0964
AAGACUGCCAAUGCCGGUCCCAAGCCCGGAUAAAAGUGGGGGGGGCGG [C3G A40G]	0.111

Variant	self-cleavage
AAGACUGCCAAUGCCGGUCCCAAGCCCGGAUGAAAGUGGAGGGGGCGG [C3G A32G]	0.434
AAGACUGCCAAUGCCGGUCCCAAGCCCGGAUAAAAGUGGAGCGGGCGG [C3G G42C]	0.128
AAGACUGCCAAUGCCGGUCCCAAGCCCGGAUAAAAGUGGAGUGGGCGG [C3G G42U]	0.118
AAGACUGCCAAUGCCGGUCCCAAGCCCGGAUAAAAGUGGAGAGGGCGG [C3G G42A]	0.111
AAGACUGCCAAUGCCCGUCCCAAGCCCGGAUAAAAGUGGAGGGGGCGG [C3G G16C]	0.123
AAGACUGCCAAUGCCUGUCCCAAGCCCGGAUAAAAGUGGAGGGGGCGG [C3G G16U]	0.608
AAGACUGCCAAUGCCAGUCCCAAGCCCGGAUAAAAGUGGAGGGGGCGG [C3G G16A]	0.271
AAAACUGCCAAUCCCGGUCCCAAGCCCGGAUAAAAGUGGAGGGGGCGG [C3A G13C]	0.0651
AAGACUGGCAAUGCCGGUCCCAAGCCCGGAUAAAAGUGGAGGGGGCGG [C3G C8G]	0.153
AAGACUGUCAAUGCCGGUCCCAAGCCCGGAUAAAAGUGGAGGGGGCGG [C3G C8U]	0.389
AAGACUGCCAAAGCCGGUCCCAAGCCCGGAUAAAAGUGGAGGGGGCGG [C3G U12A]	0.658
AAGACUGCCAAGGCCGGUCCCAAGCCCGGAUAAAAGUGGAGGGGGCGG [C3G U12G]	0.4
AAGACUGCCAACGCCGGUCCCAAGCCCGGAUAAAAGUGGAGGGGGCGG [C3G U12C]	0.447
AAGACUGCCAAUGCCGGUCCCAAGCCCGGAUAAAAGUGGAGGGGGCGG [C3G]	0.541
AAUACUGCCAAUGCCGGUCCCAAGCCCGGAUAAAAGUGGAGGGGGCGG [C3U]	0.48
AAAACUGCCAAUGCCGGUCCCAAGCCCGGAUAAAAUUGGAGGGGGCGG [C3A G36U]	0.0633
AAAACUGCCAAUGCCGGUCCCAAGCCCGGAUAAAACUGGAGGGGGCGG [C3A G36C]	0.0352
AAAACUGCCAAUGCCGGUCCCAAGCCCGGAUAAAAAUGGAGGGGGCGG [C3A G36A]	0.0998
AAAACUGCCAAUGCCGGUCCCAAGCCCGGAUAAAAGUGGAGAGGGCGG [C3A G42A]	0.0462
AAAACUGCCAAUGCCGGUCCCAAGCCCGGAUAAAAGUGGAGCGGGCGG [C3A G42C]	0.0718
AAAACUGCCAAUGCCGGUCCCAAGCCCCGAUAAAAGUGGAGGGGGCGG [C3A G28C]	0.179
AAGACUGCCAAUGCCGGUUCCAAGCCCGGAUAAAAGUGGAGGGGGCGG [C3G C19U]	0.265

Variant	self-cleavage
AAGACUGCCAAUGCCGGUGCCAAGCCCGGAUAAAAGUGGAGGGGGCGG [C3G C19G]	0.107
AAGACUGCCAAUGCCGGUCCCAAGCCCGGAUAAAAGUGGAGGGGGCGC [C3G G48C]	0.65
AAGACUGCCAAUGCCGGUCCCAAGCCCGGAUAAAAGUGGAGGGGGCGA [C3G G48A]	0.405
AAGACUGCCAAUGCCGGUCCCAAGCCCGGAUAAAAGUGGAGGGGGCGU [C3G G48U]	0.549
AAGACUGCCAAUGCCGGUCCCAAGCCCGGAUAAAAGUGGAGGGUGCGG [C3G G44U]	0.425
AAGACUGCCAAUGCCGGUCCCAAGCCCGGAUAAAAGUGGAGGGCGCGG [C3G G44C]	0.345
AAAACUGCCAAUGCCGGUCCCAAGCCCGGAUAAAAGUGGAAGGGGCGG [C3A G41A]	0.0897
AAAACUGCCAAUGCCGGUCCCAAGCCCGGAUAAAAGUGGAUGGGGCGG [C3A G41U]	0.0613
AAGACUGCCAAUGCCGGUCCCAAGCCGGGAUAAAAGUGGAGGGGGCGG [C3G C27G]	0.0859
AAGACUGCCAAUGCCGGUCCCAAGCCUGGAUAAAAGUGGAGGGGGCGG [C3G C27U]	0.327
AAGACUGCCACUGCCGGUCCCAAGCCCGGAUAAAAGUGGAGGGGGCGG [C3G A11C]	0.295
AAGACUGCCAGUGCCGGUCCCAAGCCCGGAUAAAAGUGGAGGGGGCGG [C3G A11G]	0.503
AAGACUGCCAAUGCCGGUCCCAAGCCCGGAGAAAAGUGGAGGGGGCGG [C3G U31G]	0.44
AAAACUGCCAAUGCCGGUCCCAAGCCCGGAUAAAAGUGGAGGGGGCCG [C3A G47C]	0.145
AAGACUGCCAAUGCCGGUCCCAAGCCCGGAUAAAAGUGGACGGGGCGG [C3G G41C]	0.0954
AAGACUGCCAAUGCCGGUCCCAAGCCCGGAUAAAAGUGGAAGGGGCGG [C3G G41A]	0.209
AAGACUGCCAAUGCCGGUCCCAAGCCCAGAUAAAAGUGGAGGGGGCGG [C3G G28A]	0.239
AAGACUGCCAAUGCCGGUCCCAAGCCCCGAUAAAAGUGGAGGGGGCGG [C3G G28C]	0.167
AAGACUGCCAAUGCCGGUCCCAAGCCCUGAUAAAAGUGGAGGGGGCGG [C3G G28U]	0.253
AAGACUGCCAAUGCCGGUCCCAAGCUCGGAUAAAAGUGGAGGGGGCGG [C3G C26U]	0.137
AAGACUGCCAAUGCCGGUCCCAAGCACGGAUAAAAGUGGAGGGGGCGG [C3G C26A]	0.121
AAGACUUCCAAUGCCGGUCCCAAGCCCGGAUAAAAGUGGAGGGGGCGG [C3G G7U]	0.057

Variant	self-cleavage
AAAACAGCCAAUGCCGGUCCCAAGCCCGGAUAAAAGUGGAGGGGGCGG [C3A U6A]	0.0998
AAGACUGCCAAUGCCGGUCCCAAGCCCGGAUAAAAUUGGAGGGGGCGG [C3G G36U]	0.144
AAGACUGCCAAUGCCGGUCCCAAGCCCGGAUAAAAAUGGAGGGGGCGG [C3G G36A]	0.124
AAUACUGCCCAUGCCGGUCCCAAGCCCGGAUAAAAGUGGAGGGGGCGG [C3U A10C]	0.61
AAGACUGCCAAUGCCGGUCCCAAGCCCGGGUAAAAGUGGAGGGGGCGG [C3G A30G]	0.239
AAGACUGCCAAUGCCGGUCCCAAGCCCGGUUAAAAGUGGAGGGGGCGG [C3G A30U]	0.427
AAGACUGCCAAUGCCGGUCCCAACCCCGGAUAAAAGUGGAGGGGGCGG [C3G G24C]	0.0852
AAAACUGCCAAUGCCGGUCCCAAGCCCGGAUAAAAGUGGAGGUGGCGG [C3A G43U]	0.0615
AAAACUGCCAAUGCCGGUCCCAAGCCCGGAUAAAAGUGGAGGCGGCGG [C3A G43C]	0.0669
AAGACUGCUAAUGCCGGUCCCAAGCCCGGAUAAAAGUGGAGGGGGCGG [C3G C9U]	0.191
AAGACUGCCAAUGCCGGUCCCAAGCCCGGAUAAUAGUGGAGGGGGCGG [C3G A34U]	0.203
AAGACUGCCAAUGCCGGUCCCAAGCCCGGAUAACAGUGGAGGGGGCGG [C3G A34C]	0.0918
AAGACUGCCAAUGCCGGUCCCAAGCCCGGAUAAGAGUGGAGGGGGCGG [C3G A34G]	0.235
AAAACUGCCAAUGCCGGUCCCAAGCCCGGAUAAAAGAGGAGGGGGCGG [C3A U37A]	0.201
AAAACUGCCAAUGCCGGUCCCAAGCCCGGAUAAAAGCGGAGGGGGCGG [C3A U37C]	0.193
AAAACUGCCAAUGCCGGUCCCAAGCCCGGAUAAAAGUGCAGGGGGCGG [C3A G39C]	0.0623
AAAACUGCCAAUGCCGGUCCCAAGCCCGUAUAAAAGUGGAGGGGGCGG [C3A G29U]	0.231
AAAACUGCCAAUGCCGGUCCCAAGCCCGAAUAAAAGUGGAGGGGGCGG [C3A G29A]	0.232
AAGACUGCCAAUGCCGGUCCCAUGCCCGGAUAAAAGUGGAGGGGGCGG [C3G A23U]	0.107
AAGACUGCCAAUGCCGGUCCCACGCCCGGAUAAAAGUGGAGGGGGCGG [C3G A23C]	0.137
AAGACUGCCAAUGCCGGUCCCAGGCCCGGAUAAAAGUGGAGGGGGCGG [C3G A23G]	0.106
AAGACUGCCAAUGCCGGUCCCAAGCCCGGAUAAACGUGGAGGGGGCGG [C3G A35C]	0.397

Variant	self-cleavage
AAGACUGCCAAUGCCGGUCCAAAGCCCGGAUAAAAGUGGAGGGGGCGG [C3G C21A]	0.0645
AAGACUGCCAAUGCCGGCCCCAAGCCCGGAUAAAAGUGGAGGGGGCGG [C3G U18C]	0.147
AAGACUGCCAAUUCCGGUCCCAAGCCCGGAUAAAAGUGGAGGGGGCGG [C3G G13U]	0.0808
AAAACUGCCAAUGCCGGUCCCAAUCCCGGAUAAAAGUGGAGGGGGCGG [C3A G24U]	0.0787
AAAACUGCCAAUGCCGGUCCCAAACCCGGAUAAAAGUGGAGGGGGCGG [C3A G24A]	0.0635
AAGACUGCCAAUGCCGGUCCCAAGCCCGCAUAAAAGUGGAGGGGGCGG [C3G G29C]	0.236
AAGACUGCCAAUGCCGGUCCCAAGCCCGUAUAAAAGUGGAGGGGGCGG [C3G G29U]	0.394
AAGACUGCCAAUGCCGGUCCCAAGUCCGGAUAAAAGUGGAGGGGGCGG [C3G C25U]	0.317
AAGACUGCCAAUGCCGGUCCCAAGGCCGGAUAAAAGUGGAGGGGGCGG [C3G C25G]	0.109
AAAACUGCCAACGCCGGUCCCAAGCCCGGAUAAAAGUGGAGGGGGCGG [C3A U12C]	0.425
AAGACUGCCAAUGCCGGUCCCUAGCCCGGAUAAAAGUGGAGGGGGCGG [C3G A22U]	0.384
AAAACUGCCAAUGCCGGUCCCAAGCCCGGAUAAAAGUGGAGGGGGCGU [C3A G48U]	0.282
AAAACUGCCAAUGCCGGUCCCAAGCCCGGAUAAAAGUGGAGGGGGCGA [C3A G48A]	0.277
AAGACUGCCAAUGCCGGUCCCAAGCCCGGAUACAAGUGGAGGGGGCGG [C3G A33C]	0.357
AAGACUGCCAAUGCCGGUCCCAAGCCCGGAUAGAAGUGGAGGGGGCGG [C3G A33G]	0.483
AAAACUGCCAAUGCCAGUCCCAAGCCCGGAUAAAAGUGGAGGGGGCGG [C3A G16A]	0.109
AAAACUGCCAAUGCCCGUCCCAAGCCCGGAUAAAAGUGGAGGGGGCGG [C3A G16C]	0.0608
AAAACUGCCAAUGCCGGUCCCAAGCCCGGAUAAAAGUAGAGGGGGCGG [C3A G38A]	0.268
AAAACUGCCAAUGCCGGUCCCAAGCCCGGAUAAAAGUUGAGGGGGCGG [C3A G38U]	0.191
AAAACUGCCAAUGCCGGUCCCAAGCCCGGAUAAAAGUGGAGGGGACGG [C3A G45A]	0.233
